We go through three molecules from publication PMC5360445, “SMOC can act as both an antagonist and an expander of BMP signaling” (eLife, 2017).

The target in data set [1] is recombinant mature XSMOC-1 (Xenopus SMOC-1) (Xenopus). Nature of the data set: not stated; data not shown; in the presence of 50 mM EDTA and 1 mM nitriloacetic acid.
The target is the same in data set [2]. Kind of data set: SEC; XSMOC-1 refolded in the presence of 2 mM CaCl2, then dialysed in the presence of 10.5 mM EDTA. On the technique in general: Size exclusion chromatography separates by hydrodynamic size, large species first.
Data set [3] shares this target. Nature of the data set: SEC; HiLoad Superdex-200 PG, 20 mM Tris/HCl pH 7.5, 300 mM NaCl, 2 mM CaCl2, 10% glycerol; proteins refolded in the presence of 2 mM CaCl2; molecular weights calculated from elution.
For data set [4], the target named is XSMOC-1∆EC (XSMOC-1 lacking the EC domain) (Xenopus). Described as above.
Data set [5] deals with the molecule itself. The description is as above.

As usually defined, the stoichiometry N is the number of molecules, sites or subunits per partner or assembly. Take “recombinant mature XSMOC-1 (Xenopus SMOC-1) (natural protein)”: the stoichiometry N in data set [1], in data set [2] and in data set [3] was 2 in each case. With “XSMOC-1∆EC (XSMOC-1 lacking the EC domain) (domain or fragment)”, in data set [4], the stoichiometry N is 2.

B1: human SMOC-1 (natural protein, UniProt Q9H4F8 27-434, looked up)
chain: HRTTGPRFLISDRDPQCNLHCSRTQPKPICASDGRSYESMCEYQRAKCRDPTLGVVHRGRCKDAGQSKCRLERAQALEQAKKPQEAVFVPECGEDGSFTQVQCHTYTGYCWCVTPDGKPISGSSVQNKTPVCSGSVTDKPLSQGNSGRKDDGSKPTPTMETQPVFDGDEITAPTLWIKHLVIKDSKLNNTNIRNSEKVYSCDQERQSALEEAQQNPREGIVIPECAPGGLYKPVQCHQSTGYCWCVLVDTGRPLPGTSTRYVMPSCESDARAKTTEADDPFKDRELPGCPEGKKMEFITSLLDALTTDMVQAINSAAPTGGGRFSEPDPSHTLEERVVHWYFSQLDSNSSNDINKREMKPFKRYVKKKAKPKKCARRFTDYCDLNKDKVISLPELKGCLGVSKEGRLV
notes: human SMOC-1, construct pET28-SMOC-1-HT of Novinec et al., 2008; expected monomeric size 46.6 kDa; probably the protein without its signal peptide; also called hSMOC-1; pET28-SMOC-1-HT
Regarding B1, the “stoichiometry N” value in data set [5] was 2.
